Assay results as given in PMC12912723 (2026).

T1: PscF from strain PAO1 (Pseudomonas aeruginosa, UniProt P95434 1-85)
T1 chain: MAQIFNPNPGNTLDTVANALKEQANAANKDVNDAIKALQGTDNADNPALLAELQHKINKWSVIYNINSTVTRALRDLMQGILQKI

B1: P5G10 (human anti-PscF monoclonal antibody) (antibody, V domains shown)
VH: VQLQQWGAGLLKPSETLSLTCAVYGGSFSDYYWTWIRQAPGKGLEWIGENRHRGTTNYNPSLKGRVTISVDTSKNQFTLKVTSVTAADTAVYFCARQRGSSGGAPSGLDVWGQGTTVTVSS
VL: QSVLTQPPSASGTPGQRVTISCSGASSNIGTNYVFWYQQFPGTAPKLLIYRNGHRPSGVPDRFSGSKSGASASLAISGLRSDDEADYYCATWDDSLSSQVFGGGTKLTVL
B2: P5B3 (human monoclonal antibody, IgG1) (antibody, V domains shown)
VH: EVQLVESGGGIVQPGGSLRLSCAASGFTFSSYWMHWVRQAPGKGLVWVSRINSDGSIINYADSVKGRFTISRDNAKKTLHLQMNSLRAEDTAVYYCAKDGVYDALDIWGQGTMVTVSS
VL: SYELTQPPSVSVSPGQTARITCSADALPNQYTYWYQQKPGQAPVLIMYKDSERPSGIPERFSGSSSGTTVTLTISGVQAEDEADYYCQSTDSRGTYVVFGGGTKLTVL

Tests used:
PscF from strain PAO1 = biological target: T1, PscF from strain PAO1; experiment: ELISA; competition with biotinylated P5G10
biotinylated PcrV = biotinylated PcrV (Pseudomonas aeruginosa, UniProt G3XD49 1-294, biotin); experiment: BLI

Binder | IC50 (PscF from strain PAO1) [µg/mL] | Kd (biotinylated PcrV) [pM]
B1 | 0.46 | 
B2 |  | 23.9
